Experiments:
IL-1Ra, IL-1β = test: RT-PCR of IL-1Ra and IL-1β in near-distal colon; assay type: in vivo, mice; settings: 9 mg/kg
[1] = Purification process trains with S-650F cation exchange: yield, recovery, purity, endotoxin
Procedure: Refolding was carried out at 4° C. in a refolding solution containing 1 mM reduced glutathione, 0.5 mM oxidized glutathione, 1M Arginine-HC, 250 mM sucrose, 100 mM Tris pH 8.5 at 4° C., and 2 mM EDTA. […] Buffer A for the CHT bind/elute step in Table 56 may also comprise 25 mM Tris, pH7.5, 300 mM NaCl, 5.0 mM NaPi, 0.5 mM CaCl2. Columns used are described in Table 58.
The yield, recovery, and purity of the IL-10 delivery construct was assess after each step, and after each process train.
It was surprising that a cation exchange resin was useful in the purification of the IL-10 delivery construct as cation exchange resins are negatively charged, and thus bind to proteins with a positive charge. Here, the IL-10 delivery construct has a calculated isoelectric point (pI) of 5.49, and thus is anticipated to have a negative charge under conditions traditionally used in a cation exchange chromatography.

[2] = system: polarized gut epithelial cells; test: In vivo transcytosis across polarized gut epithelial cells, rat jejunum, microscopy; parameters: species or system Wistar rats; settings: luminal application to rat jejunum
Procedure: In vivo transcytosis was tested using male Wistar rats. Male Wistar rats were housed 3-5 per cage with a 12/12 h light/dark cycle and were about 225-275 g (approximately 6-8 weeks old) when placed on study. Experiments were conducted during the light phase using a non-recovery protocol that uses continuous isoflurane anesthesia. A 4-5 cm midline abdominal incision that exposed mid-jejunum regions was conducted. Stock solutions at 3.86×10^−5 M of delivery construct were prepared in phosphate buffered saline (PBS), with 50 μL (per 250 g rat) being administered by intraluminal injection (ILI) using a 29-gauge needle. The injection site mesentery was then marked with a permanent marker. […]
The delivery construct (SEQ ID NO: 5) included the cholix carrier with SEQ ID NO: 4 (and further including an N-terminal methionine) coupled to the IL-10 payload having an amino acid set forth in SEQ ID NO: 2 via a spacer having an amino acid set forth in SEQ ID NO: 6. Green fluorescence indicates the presence of IL-10 (via staining with an anti-IL-10 antibody). Blue fluorescence indicates DAPI staining, which labels DNA, and red fluorescence indicates the presence of CK-8 (cytokeratin-8) with which a cholix-derived carrier can co-localize (e.g., in a supranuclear region of an epithelial cell) during transcytosis. […]

[3] = system: IFNγ, IL-1β, IL-2, IL-6, IL-8, TNFα; test: Single oral capsule dose in NHP: plasma proinflammatory cytokines; assay type: in vivo, Macaca fascicularis
Procedure: The panel of cytokines (IFNγ, IL-1β, IL-2, IL-6, and IL-8) was evaluated using a multiplex kit available from MSD. The assays in this panel were sandwich immunoassays. The MSD plate came precoated with capture antibodies on independent and pre-defined spots, and samples were quantitated against an 8-point standard curve prepared using a mixture of the cytokines (Proinflammatory Panel 1 (human) Calibrator Blend) from MSD. The standards included 0 pg/mL and these concentration ranges: IFNγ (0.37-1500 pg/mL), IL-1β ([…]), IL-2 (0.36-1490 pg/mL), IL-6 (0.18-721 pg/mL) and IL-8 (0.14-553 pg/mL).
The MSD plate (pre-coated with capture antibodies) was washed 3 times with PBST before use. […] Following a wash step, 2×MSD Read buffer was added to the wells of the plate, and the plate read using the MSD Sector Imager 600 plate reader. […]
The purpose of the TNFα immunoassay was to quantify NHP TNFα concentration in plasma. […] Samples were quantitated using an 8-point standard curve prepared from a human TNFα calibrator that ranges in concentration from 5.6-4052 pg/mL and includes 0 pg/mL.
The biotinylated anti-NHP TNFα capture antibody was added to a MSD Small Spot Streptavidin plate and incubated for an hour at RT with shaking. […] Following a wash step, 2×MSD Read buffer was added to the wells of the plate, and the plate read using the MSD Sector Imager 600 plate reader. […]

[4] = Control: Capto Q ImpRes, CHT gradient B/E (Table 59)
[5] = Control: Capto Q, CHT (Linear elution), based on historical data (Table 60)
[6] = PT1: Capto Q, S-650F, CHT (FT mode) (Table 60)
[7] = PT2: Capto Q ImpRes, CHT step B/E 80 mM NaPi, S-650F (Table 59)
[8] = PT2: Capto Q, CHT (Step elution), S-650F (Table 60)
[9] = PT3: S-650F, Capto Q, CHT (FT mode) (Table 60)

B1: IL-10 delivery construct: recombinant homodimeric fusion protein: N-terminal methionine, cholix386 domain, polyGlySer spacer, recombinant human IL-10 (protein)
chain: MVEEALNIFDECRSPCSLTPEPGKPIQSKLSIPSDVVLDEGVLYYSMTINDEQNDIKDEDKGESIITIGEFATVRATRHYVNQDAPFGVIHLDITTENGTKTYSYNRKEGEFAINWLVPIGEDSPASIKISVDELDQQRNIIEVPKLYSIDLDNQTLEQWKTQGNVSFSVTRPEHNIAISWPSVSYKAAQKEGSRHKRWAHWHTGLALCWLVPMDAIYNYITQQNCTLGDNWFGGSYETVAGTPKVITVKQGIEQKPVEQRIHFSKGNAMSALAAHRVCGVPLETLARSRKPRDLTDDLSCAYQAQNIVSLFVATRILFSHLDSVFTLNLDEQEPEVAERLSDLRRINENNPGMVTQVLTVARQIYNDYVTHHPGLTPEQTSAGAQAGGGGSGGGGSGGGGSPGQGTQSENSCTHFPGNLPNMLRDLRDAFSRVKTFFQMKDQLDNLLLKESLLEDFKGYLGCQALSEMIQFYLEEVMPQAENQDPDIKAHVNSLGENLKTLRLRLRRCHRFLPCENKSKAVEQVKNAFNKLQEKGIYKAMSEFDIFINYIEAYMTMKIRN
modifications: homodimer
IL-1Ra/IL-1β mRNA ratio in colonic tissue (IL-1Ra, IL-1β): increase
mRNA expression of IL-1Ra in near-distal colonic tissue (IL-1Ra, IL-1β): trend towards augmented mRNA expression of IL-1Ra
Purity [1, 4]: 78.2
Yield [1, 4]: 68 mg
Endotoxin [1, 5]: *8 EU/mg
Purity [1, 5]: *85%
Endotoxin [1, 6]: 8.9 EU/mg
Purity [1, 6]: 92%
Purity [1, 7]: 78.5%
Yield [1, 7]: 26 mg
Endotoxin [1, 8]: 5 EU/mg
Purity [1, 8]: 91%
Endotoxin [1, 9]: 0.4 EU/mg
Purity [1, 9]: 96%
earliest time of IL-10 payload transport into the lamina propria [2]: ≤ 1 min
plasma IFNγ, IL-1β, IL-2, IL-8, IL-6 ([3]; 1, 4, 20.5, 82 mg oral capsules): not associated with any consistent trends
plasma TNFα ([3]; all samples): below the limit of detection
